Test results: the supplement of paper PMC9876800

Test system: peptide library, one residue held at a place counted from the S/T acceptor
Test: relative phosphorylation of the sub-library (ratio to the mean residue at this position); higher = residue favoured
Conditions: human
In short: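 Relative sub-library phosphorylation, a ratio to the mean residue at that position, was obtained by phosphorimaging and densitometry of spots on streptavidin membranes. Before capture, purified recombinant kinases were incubated for 90 min under kinase-specific conditions with 50 μM biotinylated degenerate peptide sub-libraries and 50 μM ATP spiked with γ-32P-ATP. Each sub-library fixed one residue at one position around a central Ser/Thr.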

Sequence of HIPK4, construct: Full length (Q8NE63 whole entry, looked up): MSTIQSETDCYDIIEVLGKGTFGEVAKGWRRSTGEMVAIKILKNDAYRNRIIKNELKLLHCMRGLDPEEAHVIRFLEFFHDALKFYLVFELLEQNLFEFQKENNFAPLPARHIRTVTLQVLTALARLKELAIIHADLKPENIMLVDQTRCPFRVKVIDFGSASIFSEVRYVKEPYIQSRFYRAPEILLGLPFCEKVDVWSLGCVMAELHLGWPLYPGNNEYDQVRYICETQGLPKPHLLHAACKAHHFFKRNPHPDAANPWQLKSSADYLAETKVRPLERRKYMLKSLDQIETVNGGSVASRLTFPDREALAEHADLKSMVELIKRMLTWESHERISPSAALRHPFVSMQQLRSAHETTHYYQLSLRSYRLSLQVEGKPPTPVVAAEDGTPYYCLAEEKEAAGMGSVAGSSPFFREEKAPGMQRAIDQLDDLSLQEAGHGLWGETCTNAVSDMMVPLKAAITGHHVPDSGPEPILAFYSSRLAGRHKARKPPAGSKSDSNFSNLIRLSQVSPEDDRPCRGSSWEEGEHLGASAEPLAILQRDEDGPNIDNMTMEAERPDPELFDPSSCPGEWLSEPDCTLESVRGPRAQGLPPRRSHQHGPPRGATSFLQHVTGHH
Sequence of MAP4K2, construct: Full length (Q12851 whole entry, looked up): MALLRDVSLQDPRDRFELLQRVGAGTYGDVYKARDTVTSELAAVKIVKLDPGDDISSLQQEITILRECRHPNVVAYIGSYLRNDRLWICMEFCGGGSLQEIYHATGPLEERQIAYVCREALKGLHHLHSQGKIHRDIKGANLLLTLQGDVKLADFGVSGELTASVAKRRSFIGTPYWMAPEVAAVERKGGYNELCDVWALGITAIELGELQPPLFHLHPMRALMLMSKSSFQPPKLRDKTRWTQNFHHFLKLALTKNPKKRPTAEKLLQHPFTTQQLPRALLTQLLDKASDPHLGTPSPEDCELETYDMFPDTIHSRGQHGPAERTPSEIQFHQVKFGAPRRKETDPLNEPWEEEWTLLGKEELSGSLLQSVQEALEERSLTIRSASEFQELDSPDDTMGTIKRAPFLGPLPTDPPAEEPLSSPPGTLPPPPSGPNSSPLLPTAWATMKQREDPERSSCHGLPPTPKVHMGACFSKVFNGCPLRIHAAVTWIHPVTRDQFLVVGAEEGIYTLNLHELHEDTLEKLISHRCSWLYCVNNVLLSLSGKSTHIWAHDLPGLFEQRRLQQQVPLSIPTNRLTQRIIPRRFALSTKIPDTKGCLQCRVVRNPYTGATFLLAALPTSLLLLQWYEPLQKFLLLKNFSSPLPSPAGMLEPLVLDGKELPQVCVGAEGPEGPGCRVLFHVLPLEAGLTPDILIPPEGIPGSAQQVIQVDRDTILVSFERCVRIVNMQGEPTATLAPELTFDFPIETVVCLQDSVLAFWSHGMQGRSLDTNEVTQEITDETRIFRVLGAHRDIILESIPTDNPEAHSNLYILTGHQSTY
Sequence of MARK1, construct: Full length (Q9P0L2 whole entry, looked up): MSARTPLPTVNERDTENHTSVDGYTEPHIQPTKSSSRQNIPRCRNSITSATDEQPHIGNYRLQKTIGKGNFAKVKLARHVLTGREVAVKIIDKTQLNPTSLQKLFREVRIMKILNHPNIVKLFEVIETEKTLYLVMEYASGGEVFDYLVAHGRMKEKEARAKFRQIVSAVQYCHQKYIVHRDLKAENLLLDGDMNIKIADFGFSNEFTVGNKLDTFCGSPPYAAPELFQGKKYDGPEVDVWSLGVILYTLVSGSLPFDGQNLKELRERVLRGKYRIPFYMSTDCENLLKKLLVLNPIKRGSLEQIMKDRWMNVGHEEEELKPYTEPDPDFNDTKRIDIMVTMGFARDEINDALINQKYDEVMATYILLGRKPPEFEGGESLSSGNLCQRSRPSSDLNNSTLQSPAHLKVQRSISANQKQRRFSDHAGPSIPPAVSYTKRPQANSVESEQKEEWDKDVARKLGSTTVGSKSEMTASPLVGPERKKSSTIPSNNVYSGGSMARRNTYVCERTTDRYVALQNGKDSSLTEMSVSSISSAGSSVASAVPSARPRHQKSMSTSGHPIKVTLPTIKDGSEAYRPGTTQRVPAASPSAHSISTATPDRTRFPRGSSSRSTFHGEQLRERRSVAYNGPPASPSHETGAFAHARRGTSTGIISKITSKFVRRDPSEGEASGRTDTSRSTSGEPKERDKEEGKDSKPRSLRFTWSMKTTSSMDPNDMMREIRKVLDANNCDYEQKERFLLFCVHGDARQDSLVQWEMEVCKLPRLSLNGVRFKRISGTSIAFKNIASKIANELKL
Sequence of PAK5, construct: aa425-end (Q9P286 425-719, looked up): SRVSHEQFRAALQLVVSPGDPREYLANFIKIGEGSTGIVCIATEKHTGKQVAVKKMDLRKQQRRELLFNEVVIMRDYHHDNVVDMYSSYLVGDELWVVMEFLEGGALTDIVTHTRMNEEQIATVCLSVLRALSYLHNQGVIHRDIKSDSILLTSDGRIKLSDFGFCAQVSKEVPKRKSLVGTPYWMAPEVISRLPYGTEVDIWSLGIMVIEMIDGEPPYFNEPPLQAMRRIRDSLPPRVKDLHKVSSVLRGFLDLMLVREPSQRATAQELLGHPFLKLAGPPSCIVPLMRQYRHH

PAK5, construct: aa425-end (from UniProt Q9P286)
relative phosphorylation
Conditions	at +1	at +2	at +3	at +4	at -1	at -2	at -3	at -4	at -5
A fixed	0.523	3.81	0.935	0.868	0.794	0.298	0.638	1.06	1.07
D fixed	0.142	0.456	0.657	0.741	0.332	0.0993	0.253	0.673	0.561
E fixed	0.161	0.217	0.94	0.704	0.254	0.0919	0.269	0.731	0.544
F fixed	1.37	0.928	1.42	0.877	1.06	0.519	0.574	0.881	0.948
G fixed	0.353	0.908	1.17	1.34	0.645	0.224	0.814	1.22	1.14
H fixed	0.93	0.94	1.08	0.987	1.36	1.1	1.02	1.16	1.18
I fixed	1.82	0.958	0.944	0.834	0.538	0.325	0.439	0.591	0.78
K fixed	0.715	0.343	0.634	0.97	1.72	0.815	3.3	1.53	1.74
L fixed	1.48	0.79	1.19	0.826	1.22	0.27	0.432	0.804	0.794
M fixed	1.83	0.681	1.07	0.876	1.28	0.347	0.557	0.932	0.835
N fixed	0.402	0.924	0.702	1.01	0.942	0.26	0.744	0.959	0.986
P fixed	0.18	0.846	1.08	1.74	0.278	0.576	0.567	0.867	0.899
Q fixed	0.672	0.742	0.842	0.977	0.991	0.455	0.895	1	0.836
R fixed	0.911	0.444	0.861	1.33	2.54	9.1	4.48	1.98	1.79
V fixed	1.55	1.87	0.962	0.798	0.531	0.333	0.376	0.586	0.791
W fixed	2.21	1.02	1.32	1.21	1.14	0.428	0.898	1.08	1.12
Y fixed	1.74	1.12	1.21	0.917	1.38	1.76	0.745	0.935	0.987
pThr fixed	0.367	0.442	0.647	0.925	0.214	0.201	0.373	0.693	0.735
pTyr fixed	0.581	0.527	0.956	0.732	0.268	0.216	0.45	0.731	0.729

HIPK4, construct: Full length (from UniProt Q8NE63)
relative phosphorylation
Conditions	at +1	at +2	at +3	at +4	at -1	at -2	at -3	at -4	at -5
A fixed	0.793	1.38	1.1	1.63	1.15	2.12	0.851	0.995	0.967
D fixed	0.277	0.726	0.71	0.68	0.67	0.463	0.711	0.697	0.886
E fixed	0.34	0.618	0.505	0.578	0.693	0.354	0.477	0.702	0.719
F fixed	0.339	1.46	1.08	1.11	0.616	0.478	0.453	0.816	1.13
G fixed	0.586	1.58	1.49	1.07	1.03	1.07	0.877	1.27	1.26
H fixed	0.671	1.13	0.857	0.716	0.991	0.507	0.649	0.803	1.08
I fixed	0.427	0.675	0.857	1.31	0.589	0.837	0.807	0.82	0.841
K fixed	1	0.686	0.565	0.63	1.72	0.808	0.926	0.864	0.833
L fixed	0.508	0.696	0.816	1.64	0.783	0.916	0.669	1.12	0.968
M fixed	0.403	0.805	0.812	1.53	0.836	0.602	0.661	0.895	0.735
N fixed	1.15	0.806	0.752	0.59	0.984	0.875	0.803	0.639	0.855
P fixed	5	2.12	3.82	1.33	2.03	4.06	1.14	2.12	1.15
Q fixed	0.894	0.753	0.657	0.631	1.23	0.639	0.799	0.759	0.842
R fixed	3.2	0.719	0.525	0.503	1.57	1.35	5.38	2.01	1.47
V fixed	0.684	0.669	0.647	1.28	0.687	1.09	0.615	0.67	0.793
W fixed	0.314	0.988	0.947	1	0.592	0.401	0.562	0.955	1.25
Y fixed	0.415	1.2	0.857	0.785	0.836	0.434	0.626	0.867	1.22
pThr fixed	0.405	0.51	0.71	0.616	0.417	0.585	0.547	0.844	0.67
pTyr fixed	0.36	0.516	0.998	0.728	0.619	0.404	0.561	0.697	0.898

MARK1, construct: Full length (from UniProt Q9P0L2)
relative phosphorylation
Conditions	at +1	at +2	at +3	at +4	at -1	at -2	at -3	at -4	at -5
A fixed	0.647	0.684	0.599	0.352	1.02	1.84	0.723	0.974	0.972
D fixed	0.508	0.722	3.18	0.56	0.625	0.335	0.358	0.782	0.715
E fixed	0.778	1.09	0.947	0.373	0.616	0.261	0.408	0.696	0.695
F fixed	0.81	0.764	0.898	0.713	0.635	1.48	0.885	1.05	1.18
G fixed	0.497	0.392	0.379	0.421	2.38	0.96	0.556	1.07	0.906
H fixed	0.787	1.08	1.44	0.589	0.783	1.35	1.36	1.25	0.858
I fixed	1.2	0.885	0.565	2.73	0.557	0.503	0.555	0.654	0.974
K fixed	0.837	0.57	0.587	0.483	1.72	0.994	2.18	1.38	1.26
L fixed	1.42	1.13	0.877	4.86	0.751	0.491	0.642	0.747	1.51
M fixed	2.28	1.12	0.774	1.4	0.963	0.76	0.883	0.967	1.27
N fixed	0.949	0.968	2.63	0.679	1.1	0.576	0.571	0.865	0.739
P fixed	0.28	0.59	0.171	0.382	1.13	0.428	0.716	0.856	0.775
Q fixed	1.76	1.04	0.911	0.615	1.16	0.569	0.7	0.805	0.862
R fixed	1.14	0.69	0.476	0.384	1.41	1.08	3.66	1.75	1.48
V fixed	1.36	0.879	0.487	1.28	0.75	0.676	0.525	0.798	0.903
W fixed	0.847	3.44	1.03	0.626	0.636	3.1	1.39	1.26	1.02
Y fixed	0.903	0.958	1.05	0.555	0.766	1.6	0.884	1.09	0.877
pThr fixed	1.58	1.08	0.457	0.348	0.378	0.43	0.445	0.692	0.614
pTyr fixed	0.712	0.641	0.828	0.368	0.881	0.508	0.543	0.659	0.758

MAP4K2, construct: Full length (from UniProt Q12851)
relative phosphorylation
Conditions	at +1	at +2	at +3	at +4	at -1	at -2	at -3	at -4	at -5
A fixed	0.468	0.739	0.703	0.786	0.858	1.1	0.767	0.881	0.946
D fixed	0.266	0.979	0.592	0.804	0.927	0.912	0.852	1.09	1.01
E fixed	0.259	0.759	0.52	0.815	0.595	0.575	0.769	1.03	0.889
F fixed	1.07	0.58	0.762	0.866	0.722	1.27	0.852	1.09	1.12
G fixed	0.742	0.986	0.999	1.07	1.61	1.19	1.45	1.37	1.26
H fixed	0.576	1.03	1.1	1.06	1.17	1.29	1.09	0.999	1.07
I fixed	1.6	0.396	0.506	0.662	0.251	0.574	0.457	0.596	0.629
K fixed	0.519	2.31	2.03	1.65	1.48	0.754	1.69	1.05	1.18
L fixed	3.02	0.649	0.694	0.82	0.868	0.634	0.558	0.688	0.662
M fixed	3.03	0.78	0.773	0.938	1.03	0.778	0.706	0.852	0.858
N fixed	0.852	1.24	1.26	1.2	1.88	1.14	1.28	0.955	0.971
P fixed	0.398	1.21	1.29	1.03	0.954	1.09	1.3	1.38	1.12
Q fixed	0.581	1.11	0.996	1.22	1.09	0.908	1.05	0.921	0.834
R fixed	0.55	2.4	2.41	1.41	1.43	1.01	1.51	1.12	1.24
V fixed	0.749	0.486	0.583	0.665	0.311	0.66	0.438	0.596	0.765
W fixed	1.43	0.652	1	1.15	0.765	1.38	1.19	1.29	1.28
Y fixed	0.892	0.689	0.783	0.866	1.05	1.75	1.04	1.1	1.16
pThr fixed	1.48	1.36	1.3	0.836	0.698	1.24	1.13	1.2	1.27
pTyr fixed	0.518	0.636	0.953	0.756	0.759	0.98	1.08	1.11	1.15
